From the RNAGym collection of RNA variant scans (doi:10.1073/pnas.2313332121) come the findings set out here.

Sequences and labels used below:
B1: TPR t1 (parent)
chain: GACCAAUCUGCCCUCAGAGCUCGAGAACAUCUUCGGAUGCAGAGGAGGCAGGCUUCGGUGGCGCGAUAGCGCCAACGUCCUCAACCUCCAAUGCAUCCCACCACAUGAUGAUGCCUGAAGAGCCUUGGUUUUUUG

The variants in this data set derive from B1. Nature of the data set: polymerase ribozyme fitness, log enrichment relative to wild type (log ratio); higher = more active; in vitro selection for triplet polymerase activity. Put shortly: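 Mutant libraries of both subunits of a heterodimeric triplet polymerase ribozyme were PCR-built, transcribed, and selected once in triplicate, with frozen incubation at −7 °C and capture of gel-excised extended constructs on streptavidin beads before RT-PCR. Illumina sequencing of input and output libraries was filtered to genotypes with ≥10 input reads and ≥1 read per output. Fitness is the logarithm of genotype enrichment over wild-type enrichment, using inverse-variance-weighted replicate averages. The logarithm is base 2.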
For the variant G63U C101A, the “polymerase ribozyme fitness (log ratio)” value was -2.28.
Take G71U C101U: the “polymerase ribozyme fitness (log ratio)” value is -0.379.
Next, G71A C101A: -2.55; G39U G58A A121U: 1.6.
Next, C72G U78A U109A G128A: -5.92.
To G36A G52A A66G belongs -2.6; to G17C G61A G120C, -1.39.
With A83C C115G, the “polymerase ribozyme fitness (log ratio)” value is -1.92.
G25U: the “polymerase ribozyme fitness (log ratio)” value was -5.58.
To G65U C72A C88G C124A belongs -5.79; to A37U G71U, -0.54.
On to G10A A24C A29G C34U G44A C53U C98U A111U, for which the “polymerase ribozyme fitness (log ratio)” value was -7.41.
To C34G A46U belongs -6.06; to U7C C97U C114A, -1.45; to C40U A83G U112G, -1.69.
To U9C A41C C53G belongs -0.677.
To C31G A111U C114U belongs -6.64.
Turning to C11U G69A, the “polymerase ribozyme fitness (log ratio)” value was -2.2.
Next, C20U A100U: -2; C20U A83G C102A: -5.64; A84C U116G: -1.83.
To G71U C115U belongs -1.41; to G35A C72G A105C U109G U116G A121G, -6.34; to C11U C79G, -1.69.
To C64A G120C belongs -3.88; to G42C U96A C123U, -0.809; to G60A G93U, -1.61.
Consider C49A C56U G120U, for which the “polymerase ribozyme fitness (log ratio)” value is 0.2.
To U59A U112A belongs 1.47; to A27U G63U U96G G127C, -6.08; to U59C U78C G122A, -0.562.
To C8A C89A G122U belongs -0.485; to C15U A95G C114G, -4.48; to A37U U92C, -1.28.
Next, G36U U55C G93A: -2.49; G42A C88G U132C: -2.38.
In the case of G44A G60A U106G U112A, the “polymerase ribozyme fitness (log ratio)” value was -1.83.
To C3U U54C C104A U131C belongs -2.52.
In the case of G47U G58U G120U, the “polymerase ribozyme fitness (log ratio)” value was -1.02.
Next, C12G U14C C62U C85U C86U: -1.07; U9A A108U C123G: -4.11; C64U C124U: 0.756.
To A50U C86A A118U belongs -1.06; to G17C C64U, -4.22; to U9A A16U C64U C73U, 0.678.
On to G63U C104A U133A, for which the “polymerase ribozyme fitness (log ratio)” value was -3.31.
Take C13U A16U C56U U129G: the “polymerase ribozyme fitness (log ratio)” value is -0.207.
To C49A C123U belongs 1.14; to A2U C98U, -3.18.
Next, C56U A66C U78A: -2.84; G45C U129A: -2.61; C72A C82G: -0.603.
To A84C C98A C114G U116C belongs -4.74.
As for A37G G69U A100U C114G, the “polymerase ribozyme fitness (log ratio)” value is -1.72.
For the variant C13G C22U G113A, the “polymerase ribozyme fitness (log ratio)” value was -4.71.
To C31U U112G belongs -4.94.
To C20U C114U belongs -1.66.
To C20U G69U G120C belongs -0.787.
Regarding G47C C88A C124A, the “polymerase ribozyme fitness (log ratio)” value is -0.557.
Next, A37C G122U: -0.263; U54A C56U U133A: -0.112; C72A C85A A121C: 1.56.
Next, G44C C98U U126C: -3.05; C22G A46C C62G A74U: -6.42; C49U C62U C114G G117C U125C U129C: -7.74.
As to C98U A118C, the “polymerase ribozyme fitness (log ratio)” value was -4.03.
To G58C U106A belongs 0.185.
To C34A G45U belongs -4.49; to A2G U59G G122A U129C, -0.941.
Next, C94G U130A G135U: -1.4.
With C94A U109A, the “polymerase ribozyme fitness (log ratio)” value is -5.96.
To A5G A118U C123G belongs 2.09; to C8G A43C A50U C115U G127U, -4.94.
To G19A C62U G93U belongs -4.23; to C56U C72A A100C C104U A121G, 1.21; to A6U C124U, 1.56.
For the variant A46U C73U A90C U133A, the “polymerase ribozyme fitness (log ratio)” value was -1.35.
Next, U9C C31A G44A G47U G69U C88U A118U U133G: -4.68; A41U G42C C114A C124A: -3.31.
To C31U A46U C85U belongs -7.42; to A6G U112A U125G U129A, -1.7; to G52U U106G, -3.09.
With G23C G44U C88U A121G, the “polymerase ribozyme fitness (log ratio)” value was -6.39.
To G39U C85U belongs -0.997.
